From patent US20240279278A1, “NMU RECEPTOR 2 AGONISTS” (Boehringer Ingelheim International GmbH, priority 2023, published 2024)
One block for each binder: values may come before it.

Target: T1, human neuromedin U receptor 1 (human, UniProt Q9HB89 24-426)
T1 sequence (looked up): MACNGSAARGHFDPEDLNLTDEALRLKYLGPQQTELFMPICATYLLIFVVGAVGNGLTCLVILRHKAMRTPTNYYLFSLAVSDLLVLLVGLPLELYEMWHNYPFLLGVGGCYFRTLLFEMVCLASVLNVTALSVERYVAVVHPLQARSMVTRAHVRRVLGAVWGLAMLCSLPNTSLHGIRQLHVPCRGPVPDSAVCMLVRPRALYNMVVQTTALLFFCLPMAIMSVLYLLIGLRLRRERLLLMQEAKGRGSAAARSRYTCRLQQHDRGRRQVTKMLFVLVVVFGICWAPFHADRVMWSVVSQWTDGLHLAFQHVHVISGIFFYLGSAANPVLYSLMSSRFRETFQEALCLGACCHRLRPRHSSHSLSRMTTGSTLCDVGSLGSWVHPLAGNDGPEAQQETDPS
Assay: cell-based or functional assay

B1: C18DA-gGlu3-Sar12-AEPipAc-Tyr-Phe-NMeLeu-Nle-Arg-NMeAla-Arg-Gly-NH2 (peptide)
peptide: EEEXXXXXXXXXXXXXYFLXRARG
HELM: PEPTIDE1{[O=C(O)CCCCCCCCCCCCCCCCC(=O)[*:2]].[gGlu].[gGlu].[gGlu].[Sar].[Sar].[Sar].[Sar].[Sar].[Sar].[Sar].[Sar].[Sar].[Sar].[Sar].[Sar].[O=C(CN1CCN(CCN[*:1])CC1)[*:2]].Y.F.[meL].[Nle].R.[meA].R.G.[am]}$$$$V2.0
SMILES: CCCC[C@H](NC(=O)[C@H](CC(C)C)N(C)C(=O)[C@H](Cc1ccccc1)NC(=O)[C@H](Cc1ccc(O)cc1)NC(=O)CN1CCN(CCNC(=O)CN(C)C(=O)CN(C)C(=O)CN(C)C(=O)CN(C)C(=O)CN(C)C(=O)CN(C)C(=O)CN(C)C(=O)CN(C)C(=O)CN(C)C(=O)CN(C)C(=O)CN(C)C(=O)CN(C)C(=O)CC[C@H](NC(=O)CC[C@H](NC(=O)CC[C@H](NC(=O)CCCCCCCCCCCCCCCCC(=O)O)C(=O)O)C(=O)O)C(=O)O)CC1)C(=O)N[C@@H](CCCNC(=N)N)C(=O)N(C)[C@@H](C)C(=O)N[C@@H](CCCNC(=N)N)C(=O)NCC(N)=O
EC50 (hNMUR1) buffer: 1000 nM

B2: C18DA-gGlu3-Sar15-AEPipAc-Tyr-Phe-NMeLeu-Nle-Arg-NMeAla-Arg-Gly-NH2 (peptide)
peptide: EEEXXXXXXXXXXXXXXXXYFLXRARG
HELM: PEPTIDE1{[O=C(O)CCCCCCCCCCCCCCCCC(=O)[*:2]].[gGlu].[gGlu].[gGlu].[Sar].[Sar].[Sar].[Sar].[Sar].[Sar].[Sar].[Sar].[Sar].[Sar].[Sar].[Sar].[Sar].[Sar].[Sar].[O=C(CN1CCN(CCN[*:1])CC1)[*:2]].Y.F.[meL].[Nle].R.[meA].R.G.[am]}$$$$V2.0
SMILES: CCCC[C@H](NC(=O)[C@H](CC(C)C)N(C)C(=O)[C@H](Cc1ccccc1)NC(=O)[C@H](Cc1ccc(O)cc1)NC(=O)CN1CCN(CCNC(=O)CN(C)C(=O)CN(C)C(=O)CN(C)C(=O)CN(C)C(=O)CN(C)C(=O)CN(C)C(=O)CN(C)C(=O)CN(C)C(=O)CN(C)C(=O)CN(C)C(=O)CN(C)C(=O)CN(C)C(=O)CN(C)C(=O)CN(C)C(=O)CN(C)C(=O)CC[C@H](NC(=O)CC[C@H](NC(=O)CC[C@H](NC(=O)CCCCCCCCCCCCCCCCC(=O)O)C(=O)O)C(=O)O)C(=O)O)CC1)C(=O)N[C@@H](CCCNC(=N)N)C(=O)N(C)[C@@H](C)C(=O)N[C@@H](CCCNC(=N)N)C(=O)NCC(N)=O
EC50 (hNMUR1) buffer: 1100 nM

B6: C18DA-gGlu3-Sar12-AEPipAc-Tyr-Phe-NMeLeu-Nle-Orn-NMeAla-Arg-Gly-NH2 (peptide)
peptide: EEEXXXXXXXXXXXXXYFLXXARG
HELM: PEPTIDE1{[O=C(O)CCCCCCCCCCCCCCCCC(=O)[*:2]].[gGlu].[gGlu].[gGlu].[Sar].[Sar].[Sar].[Sar].[Sar].[Sar].[Sar].[Sar].[Sar].[Sar].[Sar].[Sar].[O=C(CN1CCN(CCN[*:1])CC1)[*:2]].Y.F.[meL].[Nle].[Orn].[meA].R.G.[am]}$$$$V2.0
SMILES: CCCC[C@H](NC(=O)[C@H](CC(C)C)N(C)C(=O)[C@H](Cc1ccccc1)NC(=O)[C@H](Cc1ccc(O)cc1)NC(=O)CN1CCN(CCNC(=O)CN(C)C(=O)CN(C)C(=O)CN(C)C(=O)CN(C)C(=O)CN(C)C(=O)CN(C)C(=O)CN(C)C(=O)CN(C)C(=O)CN(C)C(=O)CN(C)C(=O)CN(C)C(=O)CN(C)C(=O)CC[C@H](NC(=O)CC[C@H](NC(=O)CC[C@H](NC(=O)CCCCCCCCCCCCCCCCC(=O)O)C(=O)O)C(=O)O)C(=O)O)CC1)C(=O)N[C@@H](CCCN)C(=O)N(C)[C@@H](C)C(=O)N[C@@H](CCCNC(=N)N)C(=O)NCC(N)=O
EC50 (hNMUR1) buffer: > 1000 nM

B8: C18DA-gGlu3-Sar12-AEPipAc-Tyr-Phe-NMeLeu-Nle-Orn-Pro-Arg-Gly-NH2 (peptide)
peptide: EEEXXXXXXXXXXXXXYFLXXPRG
HELM: PEPTIDE1{[O=C(O)CCCCCCCCCCCCCCCCC(=O)[*:2]].[gGlu].[gGlu].[gGlu].[Sar].[Sar].[Sar].[Sar].[Sar].[Sar].[Sar].[Sar].[Sar].[Sar].[Sar].[Sar].[O=C(CN1CCN(CCN[*:1])CC1)[*:2]].Y.F.[meL].[Nle].[Orn].P.R.G.[am]}$$$$V2.0
SMILES: CCCC[C@H](NC(=O)[C@H](CC(C)C)N(C)C(=O)[C@H](Cc1ccccc1)NC(=O)[C@H](Cc1ccc(O)cc1)NC(=O)CN1CCN(CCNC(=O)CN(C)C(=O)CN(C)C(=O)CN(C)C(=O)CN(C)C(=O)CN(C)C(=O)CN(C)C(=O)CN(C)C(=O)CN(C)C(=O)CN(C)C(=O)CN(C)C(=O)CN(C)C(=O)CN(C)C(=O)CC[C@H](NC(=O)CC[C@H](NC(=O)CC[C@H](NC(=O)CCCCCCCCCCCCCCCCC(=O)O)C(=O)O)C(=O)O)C(=O)O)CC1)C(=O)N[C@@H](CCCN)C(=O)N1CCC[C@H]1C(=O)N[C@@H](CCCNC(=N)N)C(=O)NCC(N)=O
EC50 (hNMUR1) buffer: 660 nM

Further lines, results first:

EC50 (hNMUR1) buffer: 720 nM
B3: C20DA-gGlu3-Sar15-AEPipAc-Tyr-Phe-NMeLeu-Nle-Arg-NMeAla-Arg-Gly-NH2 (peptide)
peptide: EEEXXXXXXXXXXXXXXXXYFLXRARG
HELM: PEPTIDE1{[O=C(O)CCCCCCCCCCCCCCCCCCC(=O)[*:2]].[gGlu].[gGlu].[gGlu].[Sar].[Sar].[Sar].[Sar].[Sar].[Sar].[Sar].[Sar].[Sar].[Sar].[Sar].[Sar].[Sar].[Sar].[Sar].[O=C(CN1CCN(CCN[*:1])CC1)[*:2]].Y.F.[meL].[Nle].R.[meA].R.G.[am]}$$$$V2.0
SMILES: CCCC[C@H](NC(=O)[C@H](CC(C)C)N(C)C(=O)[C@H](Cc1ccccc1)NC(=O)[C@H](Cc1ccc(O)cc1)NC(=O)CN1CCN(CCNC(=O)CN(C)C(=O)CN(C)C(=O)CN(C)C(=O)CN(C)C(=O)CN(C)C(=O)CN(C)C(=O)CN(C)C(=O)CN(C)C(=O)CN(C)C(=O)CN(C)C(=O)CN(C)C(=O)CN(C)C(=O)CN(C)C(=O)CN(C)C(=O)CN(C)C(=O)CC[C@H](NC(=O)CC[C@H](NC(=O)CC[C@H](NC(=O)CCCCCCCCCCCCCCCCCCC(=O)O)C(=O)O)C(=O)O)C(=O)O)CC1)C(=O)N[C@@H](CCCNC(=N)N)C(=O)N(C)[C@@H](C)C(=O)N[C@@H](CCCNC(=N)N)C(=O)NCC(N)=O

EC50 (hNMUR1) buffer: 1000 nM
B4: C20DA-gGlu3-Sar12-AEPipAc-Tyr-Phe-NMeLeu-Nle-Dbu-Pro-Arg-Gly-NH2 (peptide)
peptide: EEEXXXXXXXXXXXXXYFLXXPRG
HELM: PEPTIDE1{[O=C(O)CCCCCCCCCCCCCCCCCCC(=O)[*:2]].[gGlu].[gGlu].[gGlu].[Sar].[Sar].[Sar].[Sar].[Sar].[Sar].[Sar].[Sar].[Sar].[Sar].[Sar].[Sar].[O=C(CN1CCN(CCN[*:1])CC1)[*:2]].Y.F.[meL].[Nle].[Dab].P.R.G.[am]}$$$$V2.0
SMILES: CCCC[C@H](NC(=O)[C@H](CC(C)C)N(C)C(=O)[C@H](Cc1ccccc1)NC(=O)[C@H](Cc1ccc(O)cc1)NC(=O)CN1CCN(CCNC(=O)CN(C)C(=O)CN(C)C(=O)CN(C)C(=O)CN(C)C(=O)CN(C)C(=O)CN(C)C(=O)CN(C)C(=O)CN(C)C(=O)CN(C)C(=O)CN(C)C(=O)CN(C)C(=O)CN(C)C(=O)CC[C@H](NC(=O)CC[C@H](NC(=O)CC[C@H](NC(=O)CCCCCCCCCCCCCCCCCCC(=O)O)C(=O)O)C(=O)O)C(=O)O)CC1)C(=O)N[C@@H](CCN)C(=O)N1CCC[C@H]1C(=O)N[C@@H](CCCNC(=N)N)C(=O)NCC(N)=O

EC50 (hNMUR1) buffer: 220 nM
B5: C20DA-gGlu3-Sar15-AEPipAc-Tyr-Phe-NMeLeu-Nle-Arg-Pro-Arg-Gly-NH2 (peptide)
peptide: EEEXXXXXXXXXXXXXXXXYFLXRPRG
HELM: PEPTIDE1{[O=C(O)CCCCCCCCCCCCCCCCCCC(=O)[*:2]].[gGlu].[gGlu].[gGlu].[Sar].[Sar].[Sar].[Sar].[Sar].[Sar].[Sar].[Sar].[Sar].[Sar].[Sar].[Sar].[Sar].[Sar].[Sar].[O=C(CN1CCN(CCN[*:1])CC1)[*:2]].Y.F.[meL].[Nle].R.P.R.G.[am]}$$$$V2.0
SMILES: CCCC[C@H](NC(=O)[C@H](CC(C)C)N(C)C(=O)[C@H](Cc1ccccc1)NC(=O)[C@H](Cc1ccc(O)cc1)NC(=O)CN1CCN(CCNC(=O)CN(C)C(=O)CN(C)C(=O)CN(C)C(=O)CN(C)C(=O)CN(C)C(=O)CN(C)C(=O)CN(C)C(=O)CN(C)C(=O)CN(C)C(=O)CN(C)C(=O)CN(C)C(=O)CN(C)C(=O)CN(C)C(=O)CN(C)C(=O)CN(C)C(=O)CC[C@H](NC(=O)CC[C@H](NC(=O)CC[C@H](NC(=O)CCCCCCCCCCCCCCCCCCC(=O)O)C(=O)O)C(=O)O)C(=O)O)CC1)C(=O)N[C@@H](CCCNC(=N)N)C(=O)N1CCC[C@H]1C(=O)N[C@@H](CCCNC(=N)N)C(=O)NCC(N)=O

EC50 (hNMUR1) buffer: 130 nM
B7: C20DA-gGlu3-Sar9-AEPipAc-Tyr-Phe-NMeLeu-Nle-Arg-Pro-Arg-Gly-NH2 (peptide)
peptide: EEEXXXXXXXXXXYFLXRPRG
HELM: PEPTIDE1{[O=C(O)CCCCCCCCCCCCCCCCCCC(=O)[*:2]].[gGlu].[gGlu].[gGlu].[Sar].[Sar].[Sar].[Sar].[Sar].[Sar].[Sar].[Sar].[Sar].[O=C(CN1CCN(CCN[*:1])CC1)[*:2]].Y.F.[meL].[Nle].R.P.R.G.[am]}$$$$V2.0
SMILES: CCCC[C@H](NC(=O)[C@H](CC(C)C)N(C)C(=O)[C@H](Cc1ccccc1)NC(=O)[C@H](Cc1ccc(O)cc1)NC(=O)CN1CCN(CCNC(=O)CN(C)C(=O)CN(C)C(=O)CN(C)C(=O)CN(C)C(=O)CN(C)C(=O)CN(C)C(=O)CN(C)C(=O)CN(C)C(=O)CN(C)C(=O)CC[C@H](NC(=O)CC[C@H](NC(=O)CC[C@H](NC(=O)CCCCCCCCCCCCCCCCCCC(=O)O)C(=O)O)C(=O)O)C(=O)O)CC1)C(=O)N[C@@H](CCCNC(=N)N)C(=O)N1CCC[C@H]1C(=O)N[C@@H](CCCNC(=N)N)C(=O)NCC(N)=O
